Among the data in the emibetuzumab library of Makowski et al. (2022) are non-specific binding call values, retold here.

B1: VH:VL chains; a variant is named by its letters at X, in order (parent)
chain 1: QVQLVQSGAEVKKPGASVKVSCKASGYTFTDYXMHWVRQAPGQGLEWMGXVNPNXXXTTYNQKFEGRVTMTTDTSTSTAYMELRSLRSDDTAVYYCARXNXLDXWGQGTTVTVSS
chain 2: DIQMTQSPSSLSASVGDRVTITCSVSSSVSSIYLHWYQQKPGKAPKLLIYSTSNLASGVPSRFSGSGSGTDFTLTISSLQPEDFATYYCQVYSGYPLTFGGGTKVEIK

Variants of B1 are the subject of this series. The experiment in a line: yeast display scFab, FACS + sequencing. The method in brief:
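The non-specific binding call was based on sorted and sequenced yeast displaying a heavy-chain CDR mutant scFab library. Labelling used anti-Myc with biotinylated ovalbumin (260 μg/mL in PBSB, 3 h, room temperature) or soluble membrane proteins (130 μg/mL, 20 min on ice), and FACS collected the top 25% and bottom 10% of binders in two replicates. Positive meant present in ≥3 of 4 pooled positive samples and in no negatives, and negative meant the converse.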
As for DGGGNDLV, the non-specific binding call was “no binding”. Regarding YGGKNSVD, the non-specific binding call is reported as “no binding”. Take VGAEGVWS chain 1 G66S: the non-specific binding call was “binds”.

FGAKTASF: the non-specific binding call was “no binding”. DKAGGDGS: the non-specific binding call was “no binding”. As for SKAGGALD, the non-specific binding call was “binds”. For the variant AGGGNDVY, the non-specific binding call is recorded as “no binding”. As for AGGGNDVV, the entry is “no binding”.

Take YGAKGDGV: the non-specific binding call is recorded as “no binding”.

As to VGETSYVD, the non-specific binding call is reported as “binds”. As to SGRGNALD, the non-specific binding call is recorded as “no binding”. Take YGAGDFGA: the non-specific binding call was “binds”. Regarding SGETGDSV, the non-specific binding call is reported as “no binding”. As for YGRTSAAV, the entry is “binds”; as for VGGTSALD, “no binding”; as for YGATSSLA, “binds”.

With DGGEGVVY, the non-specific binding call is recorded as “binds”.

As to FGAAAVGD, the non-specific binding call is “binds”. With DGGKNDAV, the non-specific binding call is listed as “no binding”. For SGTKGYWD the value was “binds”; for VKAGDSSS, “no binding”; for VGTKGDAA, “no binding”. In the case of VKAGDAWS, the non-specific binding call is reported as “no binding”.

For DGERDYSD, the non-specific binding call is “binds”. In the case of YGGTSYSV, the non-specific binding call is recorded as “no binding”. Turning to DGRGDALS, the non-specific binding call is recorded as “no binding”. As for DKAGGAGV, the entry is “no binding”. Regarding SGEGGAGA, the non-specific binding call was “no binding”.

On to YGGGGAVA, for which the non-specific binding call is recorded as “no binding”.

With VKAGASAD, the non-specific binding call was “binds”. As for SGGRTYGV, the entry is “binds”; as for FGTKGAWD, “binds”. With AGERNVAS, the non-specific binding call is given as “binds”. Consider YGETGDSV, for which the non-specific binding call is “no binding”. For the variant SGEEGSGA, the non-specific binding call is recorded as “binds”. In the case of DGKEGYWA, the non-specific binding call is “binds”. For VGTKGAGF the value was “binds”. In the case of SGRGNDAV, the non-specific binding call is listed as “no binding”.

As to VKAGGDAV, the non-specific binding call was “no binding”. For SGREGDWD, the non-specific binding call is given as “binds”. For the variant VGGTSDWA, the non-specific binding call is on record as “no binding”. Take FGRRGAGV: the non-specific binding call is given as “binds”. As for VGKGDDAA, the non-specific binding call was “no binding”. Consider VGATSFSA, for which the non-specific binding call is reported as “binds”. Turning to DGGRAFWF, the non-specific binding call is recorded as “binds”. DGGRGDGA: the non-specific binding call is “no binding”. As for SGKKSSGV, the non-specific binding call is “binds”.

As for VGGTGDVF, the non-specific binding call was “no binding”.

In the case of YGRRGFSV, the non-specific binding call is given as “binds”. For DGAKGDGV the value was “no binding”. For the variant YGGRGDWV, the non-specific binding call is reported as “no binding”. On to VKAGDAVY, for which the non-specific binding call is “no binding”. Take VGGTSSAD: the non-specific binding call is given as “no binding”. As to VGARNSGV, the non-specific binding call is listed as “no binding”. For YKAGGFWF the value was “binds”. Consider AGTKADVV chain 1 G108S, for which the non-specific binding call is listed as “no binding”. As to AGEGNSWA, the non-specific binding call was “no binding”. Regarding FGGENDGD, the non-specific binding call is listed as “no binding”. For DGGKGAVD, the non-specific binding call is given as “binds”.

On to VKAGGDSD, for which the non-specific binding call was “no binding”. Turning to FGGEGDGA, the non-specific binding call is recorded as “binds”.

On to DGGTGDVF, for which the non-specific binding call is “no binding”. As for DGTGGAGA, the entry is “no binding”; as for DGARNSGV, “no binding”.

Turning to YKAGDSSD, the non-specific binding call is on record as “no binding”. As for FGRGGVGD, the entry is “binds”. For FGRGSSWA, the non-specific binding call was “no binding”.

Take YKAGGALD: the non-specific binding call is “binds”. Take YKAGGALA: the non-specific binding call is recorded as “binds”. As for YKAGGALY, the non-specific binding call was “binds”.

For the variant YGGRAAGA, the non-specific binding call is on record as “binds”. For the variant VGEKGDGV, the non-specific binding call was “no binding”. Take YGKRDASY: the non-specific binding call is listed as “binds”. In the case of FGAATDGV, the non-specific binding call is on record as “binds”. For YKAGDSVA, the non-specific binding call is “no binding”. For SGREGDSA the value was “no binding”. Regarding DGGKNDWV, the non-specific binding call is recorded as “no binding”.

With SKAENAWV, the non-specific binding call is reported as “binds”.

Regarding YGGGGVAA, the non-specific binding call was “binds”. As for DGGGNVSD, the non-specific binding call is listed as “no binding”.

In the case of VGGRGDGS, the non-specific binding call is on record as “no binding”. AGRGADLS: the non-specific binding call was “no binding”.

In the case of YKAEDVGD, the non-specific binding call is listed as “binds”. Turning to FGRGTSGD, the non-specific binding call was “binds”.

As for VKAGGAGS chain 1 G44D, the non-specific binding call was “binds”.

With DGGTNAGD, the non-specific binding call is listed as “no binding”. In the case of SGRGNSVD, the non-specific binding call is recorded as “no binding”. As to YGTRSAAD, the non-specific binding call was “no binding”.

Consider VKAGDDVA, for which the non-specific binding call is given as “no binding”. For AGKGGFAY the value was “binds”; for VGRATVGS, “binds”; for YGTRSYGV, “binds”.

As for VGGGNAGD, the non-specific binding call is recorded as “no binding”. As for YGARNAAV, the entry is “binds”; as for VGGTSDGD, “no binding”.

In the case of VGGTSDGA, the non-specific binding call was “no binding”. For VGGTSDGV the value was “no binding”. Regarding AKAADSSD, the non-specific binding call is listed as “binds”. For YGKGTSGF the value was “no binding”; for AGGRGDVD, “no binding”. As for DGARNFGV, the entry is “no binding”; as for AGGGNAGD, “no binding”; as for DGGKNAVA, “no binding”.

Consider DGGKNAVV, for which the non-specific binding call was “no binding”.

On to DGARNAAA, for which the non-specific binding call is reported as “no binding”. In the case of FGKEDSVD, the non-specific binding call is given as “binds”. Consider YGETGFGS, for which the non-specific binding call is on record as “binds”. For DGGKNAGD the value was “no binding”; for DGGKNAGV, “no binding”; for SGRGNSGV, “no binding”. Consider SGGGNDLA chain 1 R87K, for which the non-specific binding call is recorded as “no binding”. For VGGRADGF, the non-specific binding call was “binds”. Regarding YGTATFLV, the non-specific binding call is “binds”. As for SGEGGAVA, the non-specific binding call is listed as “no binding”. For YGKGGDLA the value was “binds”.
